Results as given in patent US20120253008A1 (Ablynx, published 2012).

Each binder was assayed against T1, human serum albumin (human, UniProt P02768 25-609) (assay: phage ELISA and/or solution binding competition ELISA on HSA).
T1 construct: also called HSA

Binder	binding result
AARYPDYDVFGGGTPVGG [PMP54C2]	binds
AARYPDYDVFGGGTPSGG [PMP56C6]	binds
AARYFDYDVFGGGTPAGD [PMP56B2]	binds
AARYYDYDVFGGGTRSGE [PMP54C1]	binds
AARYYDYDVFGGGTAGGQ [PMP56A6]	binds
AARYWDYDVFGGGTPQGE [PMP56B1]	binds
AARYWDYDVFGGGTPQGE [PMP56C2]	binds
AARYWDYDVFGGGTDPGG [PMP56G2]	binds
AARYLDYDVFGGGTQLGS [PMP54D3]	binds
AARYLDYDVFGGGTDVGS [PMP54F3]	binds
AARYLDYDVFGGGTPIGE [PMP54C3]	binds
AARYFDYDVFGGGTDLGD [PMP54D2]	binds
AALYRDYDVFAGGTPGGG [PMP54E2]	binds
AAVYDDYDVFGGGTPVGG [PMP56B3]	binds
AALYRDYDVFGGGTPVGG [PMP56B5]	binds
AALYRDYDVFGGGTPVGG [PMP56F6]	binds
AAMYYDYDVFGGGTPTGA [PMP56C5]	binds
AAWYTDYDVFGGGTPQGG [PMP56F1]	binds
AARYYDYDVFGGGTPLGG [PMP56E6]	binds
AARYYDYDVFGGGTPLGA [PMP56C3]	binds
AARYYDYDVFGGGTPLGA [PMP56E3]	binds
AARYYDYDVFGGGTPLGA [PMP56E5]	binds
AAWYRDYDVFGGGTPLGA [PMP56H1]	binds
AAWYRDYDVFGGGTDEGS [PMP54B1]	binds
AAFYWDYDVFGGGTDPGA [PMP56H3]	binds
AAFYWDYDVFGGGTDPGA [PMP56G3]	binds

Binder	binding result
AAYYFDYDVFGGGTPEGT [PMP56G1]	binds
AAYYFDYDVFGGGTPEGT [PMP56C1]	binds
AATYFDYDVFGGGTAVGS [PMP54G1]	binds
AAAYLDYDVFGGGTPVGG [PMP56G5]	binds
AAAYWDYDVFGGGTSAGT [PMP54H2]	binds
AARYYDYDVFGGGTPLGG [PMP56F5]	binds
AAVYWDYDVFGGGTSLGD [PMP56B6]	binds
AAWYFDYDVFGGGTADGE [PMP56H6]	binds
AAWYFDYDVFGGGTADGE [PMP56F3]	binds
AAYYYDYDVFGGGTPGGE [PMP54G3 (SEQ ID NO: 44)]	binds
AADYYDYDVFGGGTSVGE [PMP56A1]	binds
AAYYYDYDVFGGGTPGGE [PMP56E1]	binds
AAYYRDYDVFGGGTPVGE [PMP56A5]	binds
AALYRDYDVFGGGTQVGE [PMP54G3 (SEQ ID NO: 49)]	binds
AALYKDYDVFGGGTPGGE [PMP56D4]	binds
AARYYDYDVFGGGTPLGG [PMP56G6]	binds
AAPYHDYDVFGGGTPVGE [PMP56A2]	binds
AALYGDYDVFGGGTPLGE [PMP54F2]	binds
AASYLDYDVFGGGTPFGE [PMP54H1]	binds
AAFYRDYDVFGGGTGSGN [PMP54E1]	binds
AAIYRDYDVFGGGTPLGQ [PMP54G2]	binds
AATYYDYDVFGGGTPLGQ [PMP56D5]	binds
AASYRDYDVFGGGTPRGW [PMP54H3]	binds
AATYLDYDVFGGGTPDGR [PMP54E3]	binds
AAFYMDYDVFGGGTPRGQ [PMP56A4]	binds
AARYYDYDVFGGGTVVGE [PMP54B2]	binds

Each binder was assayed against T1, human serum albumin (assay: phage ELISA, phage titration on coated HSA, near-infrared fluorescence).
Protocol: 5-fold serial dilutions of phage clones (starting from ˜5×10¹¹ phage) were added to 96-well Nunc Maxisorp plates coated with human serum albumin (2 μg/ml in PBS, overnight at 4° C.; plates were blocked with Superblock T20 (Pierce) for 1 h at room temperature). […] The amount of IRDye bound was measured on Odyssey (LI-COR Biosciences). The dilution of phage was plotted against measured near-infrared fluorescence intensity (FIG. 2).
After respectively three and four selection rounds, monoclonal phage were screened for binding on HSA, in the manner described in Example 2. Clones that bind to HSA (FIGS. 7A to 7C and Table V) were screened in phage competition ELISA, in the manner described in Example 5. The ratio of phage binding was calculated by the following equation: fluorescence signal of well with 2 μM competitor/fluorescence signal of well with no competitor (Table VI).

Binder	binding result
AARWWDYDVFGGGTPVGG [59A5]	binds
AARFWDYDVFGGGTPVGG [59B2]	binds
AARYWDFDAFGGGTPVGG [59B3]	binds
AARYWDWDVFGGGTPVGG [59C8]	binds
AARYWDFDVFGGGSPVGG [59H10]	binds
AARYWDYDVFGGGTPVDG [60E6]	binds
AARYWDYDVFGGGSQVGG [60F1]	binds
AARYWDYDVFGGGSPVGG [60G5]	binds
